Patent US5705143A, “Biological targeting agents” (Amersham International PLC, priority 1994, dated 1998)
“Also recorded” adds a separate entry of the source. Bridge positions count the residues as written; N and C are the ends. Square brackets hold non-standard residues; d marks the D form. Peptide text beside a SMILES is read from it. * marks the point of attachment. Phe(ol) = N[C@H](CO)Cc1ccccc1; NHCH(CH2OH)2 = OCC(CO)N*

How the values were obtained:
growth hormone = details: relative to somatostatin = 100%; cited from earlier work
receptor = details: Babich et al; in words; cited from earlier work
[1] = Metabolic stability in rat kidney homogenate; format: in vitro ADME; details: 37° C., approx. 1 and 3 hours, HPLC; FIG. 1; in words
Description: Rat brain and kidney homogenates were produced by homogenising brain (1.71 g) and kidneys (2.41 g) in 10 vols phosphate buffered saline and centrifuging at 2000 rpm for 5 minutes.
Compound 4 (50 μg) was radiolabelled by stannous reduction of ^99m TcO4^- (0.2 GBq) at pH 9.0.
^99m Tc-Compound 4 solution (200 μl) was mixed with phosphate buffered saline (800 μl, control) rat kidney homogenate (800 μl) and rat brain homogenate (800 μl) and incubated at 37° C. HPLC analyses using the system described in Example 13 for ^99m Tc labelled peptides were performed on each sample at approx. 1 and 3 hours post-mixing.

carboxypeptidases = details: in words; cited from earlier work
[2] = in words; cited from earlier work
[3] = Biodistribution in rats: blood, kidney/bladder/urine, liver, gut, thyroid; format: in vivo, Male Wistar rats; details: rat, i.v., carrier free (CF)
Description: (§1) Male Wistar rats were injected intravenously, under light anaesthesia with the test agent. At 2 minutes, 1 hour and 4 hours post-injection animals were sacrificed by cervical dislocation and various organs and tissue samples were removed for assay of radioactive content. The percentage injected dose in all dissected organs was calculated. In addition the % dose/gram tissue and the relative concentration of activity was calculated for selected organs. Relative concentration is the proportion of total activity in the organ divided by the proportion of bodyweight comprised by the organ. Thus, if a compound is uniformly disseminated throughout the body according to tissue weight then a given organ will have a relative concentration=1. A relative concentration>1 implies sequestration and/or retention of the compound and is a useful index where the absolute uptake (% injected dose per organ) is low.
(§2) Organs in which the test agent were looked for included the adrenals and the pancreas, where somatostatin receptors are known to be enriched (vide supra).

somatostatin receptors = assay: Biodistribution in rats: uptake/retention in adrenals and pancreas (somatostatin receptor-enriched tissues); format: in vivo, Male Wistar rats; details: rat, i.v.; for Adrenal % Injected dose / Adrenal Relative concentration / Pancreas % Injected dose / Pancreas Relative concentration: carrier free (CF)
Description: In the present invention the peptides studied were radiolabelled with either ^123 I or ^99m Tc and their biodistributions studied in rats with organs of particular interest being the adrenals and pancreas. This is because somatostatin receptors have been shown in vitro to be enriched in a number of tissues including adrenals^(11,12), pancreas^(13,14), pituitary^(11,14) and brain^(15). […] Brain somatostatin receptors are not visualised when the compound is administered in vivo. In this study measurement of pituitary uptake was not sufficiently sensitive to distinguish specific and non-specific effects.
Carrier Effect on ^123 I--Compounds 1 and 6
For ^123 I--Compounds 1 and 6 the effect of carrier peptide on the biodistribution of the carrier-free ^123 I peptide was assessed by preparing 2 ml of a phosphate buffered solution of HPLC-purified carrier-free iodinated peptide as described above but then subdispensing 1 ml of this solution into a second vial containing carrier peptide.
A similar `carrier-effect` is anticipated for technetium labelled peptides, therefore the only valid comparison of biodistribution data for ^99m Tc and ^123 I labelled peptides is when both are carrier-added (CA).
as §1, §2

For `C[C@H](O)[C@H](CO)NC(=O)[C@@H]1CSSC[C@H](NC(=O)[C@H](N)Cc2ccccc2)C(=O)N[C@@H](Cc2ccccc2)C(=O)N[C@H](Cc2c[nH]c3ccccc23)C(=O)N[C@@H](CCCCN)C(=O)N[C@@H]([C@@H](C)O)C(=O)N1` [D-Thr(ol)], which “Relative potency (%) of growth hormone inhibition in vivo” value (growth hormone) is on record?
Its value is 1100%.

For `CSCC[C@H](NC=O)C(=O)N[C@@H](CC(C)C)C(=O)N[C@@H](Cc1ccccc1)C(=O)NCCCCCCNC(=O)c1ccc(NN)nc1` [HP3, fMLFNH(CH2)6 NH--HYNIC], which “in vitro receptor binding affinity” value (receptor) is on record?
Its value is “marginally better in vitro receptor binding affinity than HP2”.

For `C[C@@H](O)[C@@H]1NC(=O)[C@H](CCCCN)NC(=O)[C@@H](Cc2c[nH]c3ccccc23)NC(=O)[C@H](Cc2ccccc2)NC(=O)[C@@H](NC(=O)[C@H](N)Cc2ccccc2)CSSC[C@@H](C(=O)N[C@H](CO)Cc2ccccc2)NC1=O` [Phe(ol)] (H-[dF]CF[dW]KTC[Phe(ol)]; disulfide 2-7), which “Relative potency (%) of growth hormone inhibition in vivo” value (growth hormone) is on record?
The value was 650%.

Which “metabolic stability in rat kidney homogenate” value [1] does the source give for somatostatin here?
The value was “rapidly metabolised”.

What about the “susceptibility to metabolism by carboxypeptidases” value (carboxypeptidases) of the same compound?
The value was “particularly susceptible to metabolism by carboxypeptidases”.

For `C[C@H](O)[C@@H](NC(=O)[C@@H]1CSSC[C@H](NC(=O)[C@H](N)Cc2ccccc2)C(=O)N[C@@H](Cc2ccccc2)C(=O)N[C@H](Cc2c[nH]c3ccccc23)C(=O)N[C@@H](CCCCN)C(=O)N[C@@H]([C@@H](C)O)C(=O)N1)C(N)=O` [D-Thr(NH2)], which “Relative potency (%) of growth hormone inhibition in vivo” value (growth hormone) is on record?
The value was 1160%.

Which biological half-life [2] does the source give for `C[C@@H](O)[C@@H]1NC(=O)[C@H](CCCCN)NC(=O)[C@@H](Cc2c[nH]c3ccccc23)NC(=O)[C@H](Cc2ccccc2)NC(=O)[C@@H](NC(=O)[C@H](N)Cc2ccccc2)CSSC[C@@H](C(=O)N[C@H](CO)[C@@H](C)O)NC1=O` [Octreotide] here?
Its biological half-life is “much longer biological half-life than natural somatostatin”.

With `C[C@@H](O)[C@@H]1NC(=O)[C@H](CCCCN)NC(=O)[C@@H](Cc2c[nH]c3ccccc23)NC(=O)[C@H](Cc2ccccc2)NC(=O)[C@@H](NC(=O)[C@H](N)Cc2ccccc2)CSSC[C@@H](C(=O)N[C@H](CO)[C@@H](C)O)NC1=O` [Thr(ol)] as the compound, how does the “Relative potency (%) of growth hormone inhibition in vivo” value (growth hormone) read?
Its value is 7000%.

With `C[C@@H](O)[C@@H]1NC(=O)[C@H](CCCCN)NC(=O)[C@@H](Cc2c[nH]c3ccccc23)NC(=O)[C@H](Cc2ccccc2)NC(=O)[C@@H](NC(=O)[C@H](N)Cc2ccccc2)CSSC[C@@H](C(=O)NC(CO)CO)NC1=O` [Ser(ol)] (H-[dF]CF[dW]KTC-{NHCH(CH2OH)2}; disulfide 2-7) as the compound, how does the “Relative potency (%) of growth hormone inhibition in vivo” value (growth hormone) read?
Its value is 2800%.

Which results are given for I-SS14: 123I labelled Somatostatin-14?
Blood % Injected dose ([3]; 2 min pi): 16.2 % Injected dose; Gut % Injected dose ([3]; 2 min pi): 9.9 % Injected dose; Kidney, Bladder & Urine % Injected dose ([3]; 2 min pi): 3.4 % Injected dose; Liver % Injected dose ([3]; 2 min pi): 7.2 % Injected dose; Thyroid % Injected dose ([3]; 2 min pi): 0.11 % Injected dose; Blood % Injected dose ([3]; 1 hr pi): 5.5 % Injected dose; Gut % Injected dose ([3]; 1 hr pi): 19.9 % Injected dose; Kidney, Bladder & Urine % Injected dose ([3]; 1 hr pi): 9.9 % Injected dose; Liver % Injected dose ([3]; 1 hr pi): 2.2 % Injected dose; Thyroid % Injected dose ([3]; 1 hr pi): 1.10 % Injected dose; Blood % Injected dose ([3]; 4 hr pi): 6.1 % Injected dose; Gut % Injected dose ([3]; 4 hr pi): 12.1 % Injected dose; Kidney, Bladder & Urine % Injected dose ([3]; 4 hr pi): 17.9 % Injected dose; Liver % Injected dose ([3]; 4 hr pi): 2.4 % Injected dose; Thyroid % Injected dose ([3]; 4 hr pi): 2.00 % Injected dose; somatostatin (SS) receptor binding in adrenals and pancreas (somatostatin receptors; 2 min, 1 and 4 hours p.i., in words, listed as 123 I-SS14): can be detected in the adrenal glands and pancreatic tissue; also recorded: marked SS-like binding of ^123 I-SS14 at 2 minutes post-injection (p.i.), but this activity was not retained at 1 and 4 hours p.i; Adrenal % Injected dose (somatostatin receptors; 2 min pi): 0.19 % Injected dose; Adrenal Relative concentration (somatostatin receptors; 2 min pi): 7.6; Pancreas % Injected dose (somatostatin receptors; 2 min pi): 2.3 % Injected dose; Pancreas Relative concentration (somatostatin receptors; 2 min pi): 4.5; Adrenal % Injected dose (somatostatin receptors; 1 hr pi): 0.01 % Injected dose; Adrenal Relative concentration (somatostatin receptors; 1 hr pi): 0.4; Pancreas % Injected dose (somatostatin receptors; 1 hr pi): 0.3 % Injected dose; Pancreas Relative concentration (somatostatin receptors; 1 hr pi): 0.6; Adrenal % Injected dose (somatostatin receptors; 4 hr pi): 0.01 % Injected dose; Adrenal Relative concentration (somatostatin receptors; 4 hr pi): 0.3; Pancreas % Injected dose (somatostatin receptors; 4 hr pi): 0.2 % Injected dose; Pancreas Relative concentration (somatostatin receptors; 4 hr pi): 0.4
